# Assay results from patent US20090305339A1, “Polypeptides With Laccase Activity” (VIALACTIA BIOSCIENCES (NZ) LIMITED, priority 2006, published 2009).
# B1: RL5: polypeptide with laccase activity from bovine rumen metagenome library, amino acid sequence of FIG. 11 (protein)
# chain: MIELEKLDFAKSVEGVEAFSTTRGQVDGRNAYSGVNLCDYVGDDALRVLDARLTLAMQLGVDLDDLVMPRQTHSCRVAVIDERFRALDIDEQEAALEGVDALVTRLQGIVIGVNTADCVPIVLVDSQAGIVAVSHAGWRGTVGRIAKAVVEEMCRQGATVDRIQAAMGPSICQDCFEVGDEVVEAFKKAHFNLNDIVVRNPATGKAHIDLRAANRAVLVAAGVPAANIVESQHCSRCEHTSFFSARRLGINSGRTFTGIYRK
# modifications: Description of sequence Amino acid sequence of RL5 laccase 3217 to 2414 frame 1 - 262 amino acids (see Figure 11)
# Columns and labels:
# Type in all cases: biochemical
# [1] = pH- and temperature-dependent activity and inactivation profiles
# Protocol: FIG. 2A represents the effect of various pH values on the activity of recombinant purified RL5 laccase. The activity was measured at 40° C. using 1 mM SGZ (syringaldazine) or DMP as substrate. The buffers (100 mM) used were: citrate (pH 3.0-5.5), MES (pH 5.5-7.0), HEPES (pH 7.0-8.0), Tris-HCl (pH 8.0-9.0) and glycine-NaOH (pH 9.0-12). The activity of RL5 for DMP reached an optimum at a broad pH ranging from 3.5-9.0, being optimal at 4.0-5.0; however, it maintained more than 70% activity at pH 3.5 and 9.0 (FIG. 2A).
# FIG. 2B represents the pH inactivation of purified RL5 laccase in sodium citrate pH 4.5 (indicated with “∘”) or glycine-NaOH pH 9.0 (indicated with “[…]”) over a time period of 240 min. 100% activity in the purified protein sample equals 7.2 units/mg (measured at 40° C.).
# FIG. 2C represents the effect of the temperature on the activity of recombinant purified RL5 laccase. The enzyme activity was assayed at each indicated temperature in sodium citrate pH 4.5 in the presence of 1 mM SGZ or DMP. Activity was monitored at 420 nm. Protein activity increased as the temperature was raised to a maximum at ˜60° C. Therefore, RL5 is stable at high temperatures.
# FIG. 2D represents the thermal inactivation of purified RL5 laccase. Purified enzyme was incubated in vials at 60° C. ([…]) or 65° C. (∘). At the indicated times, samples were withdrawn and tested for laccase activity at 40° C. by using SGZ or DMP as a substrate. 100% activity in the purified protein sample equals 17.2 units/mg.
# Corresponding experiments were performed with BT4389 and YfiH under conditions as described above for FIGS. 2A to 2D (data not shown). The activity of these enzymes reached an optimum at a temperature of 52° C. (for BT4389) and 44° C. (for YfiH) and the thermal activity maintained for more than 80% at 55° C. (for BT4389) and at 50° C. (for YfiH). The activity of both enzymes reached an optimum at a pH range from 4.5 to 6.0 (for BT4389) and from 5.5 to 8.4 (for YfiH), although 80% activity maintained at pH 4.0 to 7.5 (for BT4389) and 5.0 to 9.0 (for YfiH).
# (§1) Laccase activity was determined spectrophotometrically in a thermostated spectrophotometer (Perkin-Elmer) at 40° C. in 100 mM sodium citrate buffer, pH 4.5 (1 ml). The standard assay was performed at 530 nm, using SGZ as the oxidation substrate (ε530=64,000 M^−1cm^−1). The reaction was started by adding SGZ, from a stock solution in methanol, to a final concentration of 20 μM. […] Oxidation of phenol red (75 μM) was determined by the decrease in absorbance at 432 nm. The activity:pH and activity:temperature relationships were determined by incubating the enzyme:substrate mixtures at different pH values and constant temperature (40° C.), and at different temperatures (15-80° C.) and constant pH (4.5), respectively. Catalytic constants were derived by fitting the experimental data onto the Michaelis-Menten model. Control measurements without enzyme were carried out to correct for possible chemical oxidation of the substrates.
# [2] = Oxidation of anthracene (HPLC, GC-MS/MS); conditions: 50 μM anthracene, HOBt, pH 4.5, overnight, room temperature
# Protocol: Procedures for cloning, expression and purification of laccase are described in the reference: Beloqui, A., et al. (2006), which is made part of the disclosure of the present application.
# HPLC conditions: the HPLC (Varian 9012) was provided with an automatic injector (Autosampler L2200, VWR Hitachi). 10 μL of sample reaction were injected to a C18 Nucleosil 3 μm, 80×4 mm, column (AV-2486, Analisis Vinicos S. A.). The mobile phase consisted of acetonitrile:water 70:30 (v/v) and the flow rate was controlled at 1 mL/min. A PhotoDiode Array Detector (Prostar 335, Varian) with the UV lamp fixed to 251 nm was used to detect the eluted compounds.
# [3] = Laccase activity, 3,4-dimetoxybenzyl alcohol as substrate
# Protocol: as §1
molecule,measurement,setting,value
B1,pH optimum of activity,"[1]; 40° C., 1 mM substrate, 100 mM buffers",4.0-5.0 pH
same,activity maintained at pH 3.5 and 9.0,"[1]; DMP, 40° C.",more than 70%
same,broad pH range of activity,"[1]; DMP, 40° C.",3.5-9.0 pH
same,thermal stability,[1]; incubated at 60° C. or 65° C.,"highly stable at this temperatures over a long time period, for at least four hours"
same,100% activity in the purified protein sample,"[1]; pH inactivation experiment, measured at 40° C.",7.2 units/mg
same,temperature optimum of activity,"[1]; sodium citrate pH 4.5, 1 mM SGZ or DMP",~60 °C
same,pH stability,"[1]; sodium citrate pH 4.5 or glycine-NaOH pH 9.0, 240 min",highly stable over a long time period at these pHs
same,100% activity in the purified protein sample,"[1]; thermal inactivation experiment, tested at 40° C., SGZ or DMP",17.2 units/mg
same,oxidation of anthracene,[2],"efficiently oxidize anthracene to 9,10-antraquinone"
same,substrate of the laccase,[3],not substrates
